Test [1] concerns the target T1, CD6 on Jurkat cells (human, UniProt P30203 18-668).
T1 construct: whole, on cells; the target is inferred from the antibodies' specificity
T1 sequence (looked up): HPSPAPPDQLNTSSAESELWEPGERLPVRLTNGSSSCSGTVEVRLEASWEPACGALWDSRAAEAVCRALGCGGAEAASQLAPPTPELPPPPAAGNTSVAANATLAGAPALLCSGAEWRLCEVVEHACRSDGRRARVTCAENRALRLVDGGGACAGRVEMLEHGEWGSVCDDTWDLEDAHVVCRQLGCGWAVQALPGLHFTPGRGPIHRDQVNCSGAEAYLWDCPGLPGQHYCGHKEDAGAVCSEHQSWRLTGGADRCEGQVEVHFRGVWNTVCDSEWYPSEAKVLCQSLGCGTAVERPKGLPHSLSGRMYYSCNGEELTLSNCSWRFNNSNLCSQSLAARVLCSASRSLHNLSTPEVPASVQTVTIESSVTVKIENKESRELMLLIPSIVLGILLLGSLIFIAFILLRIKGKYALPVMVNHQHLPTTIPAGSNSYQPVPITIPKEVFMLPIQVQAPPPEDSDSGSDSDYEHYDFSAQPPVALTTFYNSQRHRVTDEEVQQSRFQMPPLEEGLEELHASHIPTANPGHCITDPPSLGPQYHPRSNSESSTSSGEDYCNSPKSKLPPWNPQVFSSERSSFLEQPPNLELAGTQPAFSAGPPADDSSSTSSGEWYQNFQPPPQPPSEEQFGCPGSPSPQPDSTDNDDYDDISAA
The experiment in a line: flow cytometry on Jurkat cells, antibody at 10000 pM. The procedure:
(§1) Flow cytometric analysis was performed using the purified antibodies. Jurkat cells were grown to 70-80% confluence and harvested by centrifuge. About 4×10⁵ cells per well were washed with PBS twice. 200 μl of the culture supernatant was added to the cells and incubated at room temperature for 1 hour. After washing with PBS, antibody was added to the cells for the detection of bound humanized IgG. After 30 minutes incubation, the cells were washed twice with PBS and resuspended in PBS. Cells were analyzed for IgG binding by using FACS Calibur (BD Bioscience, San Jose, Calif.) and Flowjo software. The IC₅₀ was analyzed by GraphPad Prism.
(§2) The FACS binding assay was also performed for validation of the Jurkat cell/humanized antibody interaction. Three humanized antibodies show almost equal Jurkat cell binding activity as parent antibody.

The target of test [2] is T1, CD6 on Jurkat cells. The experiment in a line: flow cytometry on Jurkat cells, antibody at 400 pM. The protocol:
as §1, §2
For orientation: In flow cytometry, cells or beads pass a laser one at a time.

In test [3] the target is T1, CD6 on Jurkat cells. The experiment in a line: flow cytometry on Jurkat cells, antibody at 0 pM (background). The protocol:
as §1, §2

The target of test [4] is T1, CD6 on Jurkat cells. The test is described as follows: flow cytometry on Jurkat cells, antibody at 16 pM. The procedure:
as §1, §2

The target of test [5] is T1, CD6 on Jurkat cells. The experiment in a line: flow cytometry on Jurkat cells, antibody at 2000 pM. The protocol: as §1, §2
Test [6] deals with T1, CD6 on Jurkat cells. The experiment in a line: flow cytometry on Jurkat cells, antibody at 3.2 pM. The procedure:
as §1, §2

In test [7] the target is T1, CD6 on Jurkat cells. The test is described as follows: flow cytometry on Jurkat cells, antibody at 80 pM. The procedure: as §1, §2
Test [8] has as its target T2, rhCD6-Fc (human, UniProt P30203 25-398, limits assumed).
T2 construct: also called rhCD6-Fc chimera; antigen rhCD6-Fc; not shown: Fc part
T2 sequence (looked up): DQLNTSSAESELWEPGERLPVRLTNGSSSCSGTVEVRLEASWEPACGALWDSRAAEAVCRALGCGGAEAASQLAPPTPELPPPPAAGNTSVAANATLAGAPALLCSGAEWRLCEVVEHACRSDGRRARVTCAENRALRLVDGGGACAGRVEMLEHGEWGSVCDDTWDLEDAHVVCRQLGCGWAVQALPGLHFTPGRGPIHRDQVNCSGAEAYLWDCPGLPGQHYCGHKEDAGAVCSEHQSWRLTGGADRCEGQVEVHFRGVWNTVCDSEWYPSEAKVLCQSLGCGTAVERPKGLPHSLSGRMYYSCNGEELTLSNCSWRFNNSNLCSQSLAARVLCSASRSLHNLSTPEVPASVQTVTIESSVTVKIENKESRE
The test is described as follows: SPR (BIAcore T200, 25 C), rhCD6-Fc immobilised on CM5, IgG injected 0.11-27 nM, 1:1 fit; column head misprinted 'Kd (1/Ms)'. The protocol: (§3) IgG antibodies were injected through flow cells at a flow rate of 30 μl/min with the concentration ranging from 0.11-27 nM (three-fold serial dilution). Association time was 700 s followed by 3600 s dissociation. At the end of each cycle, sensor surface was regenerated with 10 mM Glycine-HCl, pH 2.0 (100 μl/min, 12 s for 3 times). Responses of reference flow cell and buffer-only injection were double-subtracted from rhCD6-Fcflow cell during each antigen injection cycle. The data of dissociation (kd) and association (ka) rate constants were obtained by fitting binding data to 1:1 binding model using Biacore T200 evaluation software. The apparent equilibrium dissociation constants (KD) were calculated from the ratio of kd over ka.
(§4) Affinity analysis of antigen-antibody interaction. Binding data of each antibody was processed and fitted to 1:1 binding model using Biacore T200 evaluation software. All experiment data could be perfectly fitted to the model (FIG. 14).
A general note: SPR reads the build-up and loss of mass on a sensor chip optically.

Test [9] concerns the target T2, rhCD6-Fc. The experiment in a line: SPR (BIAcore T200, 25 C), rhCD6-Fc immobilised on CM5, IgG injected, apparent KD = kd/ka. The procedure: as §3, §4
For test [10], the target named is T1, CD6 on Jurkat cells. The test is described as follows: flow cytometry titration of direct binding on Jurkat cells (the filing calls the midpoint IC50), GraphPad Prism. The procedure:
as §1, §2

B1: Humanized IgG4 (from Fab4) (antibody, V domains shown)
VH: QVQLQESGPGLVKPSETLSLTCTVSGFSISRYSVHWIRQPPGKGLEWIGLIWGGGFTDYNSALKSRVTISKDNSKNQVSLKLSSVTAADTAVYYCAREGVAYWGQGTLVTVSS
VL: DVVMTQSPLSLPVTLGQPASISCKSSQSLLNSDGRTYLNWFQQRPGQSPRRLIYLVSKLDSGVPDRFSGSGSGTDFTLKISRVEAEDVGVYYCWQGTHFPFTFGPGTKVDIKR
notes: VH4-hIgG1CH and VL-hIgKCL (human IgG1 / kappa; 'IgG4' is the clone number, not the isotype)
For the molecule B1, the MFI was 46.7 with CD6 on Jurkat cells [1]; 37 with CD6 on Jurkat cells [2]; 5.45 with CD6 on Jurkat cells [3]; 7.65 in the test with CD6 on Jurkat cells [4]; 44.4 with CD6 on Jurkat cells [5]; 6.45 with CD6 on Jurkat cells [6]. This molecule also yielded an MFI in the test with CD6 on Jurkat cells [7] of 15. In addition, the koff in the test with rhCD6-Fc [8] was determined as 1.3e-05 s⁻¹. The same molecule returned an on-rate (kon) in the test with rhCD6-Fc [8] of 350000 M⁻¹ s⁻¹. The Kd with rhCD6-Fc [9] was found to be 0.038 nM. Besides, it took 0.185 nM to reach a half-maximal effect in the test with CD6 on Jurkat cells [10] (EC50).

As usually defined, the koff is the first-order rate constant of dissociation. Low values mean slow dissociation, high ones fast dissociation. By kon is commonly meant a measure of how fast the partners come together. A word on the EC50: it is the concentration at which the effect is half-maximal. Higher therefore signals lower potency in that assay.

The values are drawn from US20200140566A1 (CLEVELAND CLINIC FOUNDATION, published 2020).
